# B1: HvOXO (Hordeum vulgare) (protein)
# chain: SDPDPLQDFCVADLDGKAVSVNGHTCKPMSEAGDDFLFSSKLTKAGNTSTPNGSAVTELDVAEWPGTNTLGVSMNRVDFAPGGTNPPHIHPRATEIGMVMKGELLVGILGSLDSGNKLYSRVVRAGETFVIPRGLMHFQFNVGKTEAYMVVSFNSQNPGIVFVPLTLFGSDPPIPTPVLTKALRVEAGVVELLKSKFAGGS
# Substrate: O=C(O)C(=O)O
# Test: purified protein
# Conditions: pH 4.0 (authors' preferred pH; also measured at pH 3 and 5), 100 mM buffer, air-saturated, 25 °C, 0.025 μM HvOXO, 0.125 μM PaDa-I as coupling enzyme
protein,measurement,value
B1,Km,730 ± 90 µM
same,kcat,1.52 s⁻¹
same,kcat/Km,2080 M⁻¹ s⁻¹

# Source: article PMC9805127
